US20070280881A1

Molecular target: TAG-72 (tumor associated antigen TAG-72) (human)
Experiment: binding data (text calls it ED50), method not stated; ELISA on TAG-72 coated plates per Example 7

Row | Substance | Kd
1 | CC49.ΔCH2 [gly/ser] (domain deleted CC49 with Gly/Ser spacer) (antibody) | 1.8 nM
2 | Humanized CC49 IgG (antibody) | 2.5 nM
3 | ddCC49, no spacer (huCC49.ΔCH2, unfractionated mixture of 120 kDa and 240 kDa forms) (antibody) | 0.8 nM
